The supplement of paper PMC9170038

Test system: MS2 coat protein
Experiment: apparent KD of MS2 coat protein; designed switch direction (-1 OFF switch, 1 ON switch): -1; higher = weaker reporter binding
How it was run: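 On Illumina chips, designed RNA switches with common flanks were made by stalled E. coli RNA polymerase. Titrations with SNAP-549-labelled MS2 coat protein, doubling from 0.7 or 1.5 nM to 3 µM, were done with no input, with 200 uM small-molecule ligand, or with an oligonucleotide input. Apparent KD is the median per design over clusters, from curve fits of normalised cluster fluorescence.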

[1] = input ligand: microRNA oligo, concentration not stated
[2] = Eterna round: R95, input ligand: microRNA oligo, concentration not stated
[3] = Eterna round: R95, input ligand: FMN 200 uM
[4] = Eterna round: R95, input ligand: none

## UGAUCUAGCGGAGGAUAUACAUGAGGAUCACCCAUGUAAUGGUGACGUGCGUACAUGUCACCUGUGUAGAAGGCCGCUAGAUCU [JL ENG2 3.57] (Eterna round: R96, puzzle: Exclusion NG 2)
Input ligand: FMN 200 uM
  apparent KD of MS2 coat protein: 11.3 nM
[1]
  apparent KD of MS2 coat protein: 15.6 nM
Input ligand: none
  apparent KD of MS2 coat protein: 16 nM

## GUGCAACAUGAGGAUCACCCAUGUCAGGAUAUGCGAAUUUCAUCAAAAGAUGAAAUUUGCAGAAGGGACAGCAC [Omei Ex1 A16] (Eterna round: R97, puzzle: Exclusion 1)
Input ligand: FMN 200 uM
  apparent KD of MS2 coat protein: 32 nM
Input ligand: none
  apparent KD of MS2 coat protein: 24.4 nM

## CGUCUGUAAGGAUAUGGUUGCAUCAACAUGAGGAUCACCCAUGUAACGUGGGACUAGUGAUUAGAAGGUACGAACG [EX5 #60] (Eterna round: R97, puzzle: Exclusion 5)
Input ligand: FMN 200 uM
  apparent KD of MS2 coat protein: 93.8 nM
Input ligand: none
  apparent KD of MS2 coat protein: 118 nM

## AGUGUGUGGCAGGAUAUUCUAAUCGUGAGGAGGGAAGAAGGGUCUACAUGAGGAUCACCCAUGUAAGCGGUUGA [Ex6 #42] (Eterna round: R97, puzzle: Exclusion 6)
Input ligand: FMN 200 uM
  apparent KD of MS2 coat protein: 259 nM
Input ligand: none
  apparent KD of MS2 coat protein: 140 nM

## CCCGAACAUGAGGAUCACCCAUGUCAGGAUAUAUUGCAGUGCAGAGCGCGUGCUAAGGAUAGAAGGGACAUGAA [Eternabot (L2) Solution 62] (Eterna round: R97, puzzle: Exclusion 1)
Input ligand: FMN 200 uM
  apparent KD of MS2 coat protein: 31.4 nM
Input ligand: none
  apparent KD of MS2 coat protein: 29 nM

## GAUAAGCUAGGAUAUACAUAUUAUUUAAUAUCCUCAUUAAUACAUGAGGAUCACCCAUGUAGAAGGAGCAAUAG [Mat - Exclusion 2 - Mod of Hog - D90] (puzzle: Exclusion 2)
[2]
  apparent KD of MS2 coat protein: 108 nM

## CUGCUCCGUGUAGGAUAUGCAUACUCCCACUAUGCAGAAGGACAUGAGGAUCACCCAUGUAUGUUAUUAUCACGUGUAGCGUAC [Design 16] (Eterna round: R96, puzzle: Exclusion NG 1)
[1]
  apparent KD of MS2 coat protein: 21.7 nM

## GUUUACAAGCUAAGAUCCUACAUGAGGAUCACCCAUGUGGUCCGGUGACGUGAGUCACCGGACUUAGCUCGUCUUGU [salish99_S_TOV1_R5_001] (Eterna round: R97, puzzle: Sensor, turn-off variant 1)
Input ligand: FMN 200 uM
  apparent KD of MS2 coat protein: 86.8 nM
Input ligand: none
  apparent KD of MS2 coat protein: 90.4 nM

## CCAAGAUAAGGAUAUUGAAGGUUCGACAUGAGGAUCACCCAUGUUAUGUUGGAAAAGGGACAAGAAGGUAUGAAAA [salish99_ex5_r4_215] (Eterna round: R97, puzzle: Exclusion 5)
Input ligand: FMN 200 uM
  apparent KD of MS2 coat protein: 27.6 nM
Input ligand: none
  apparent KD of MS2 coat protein: 34.3 nM

## UGAUCAGACCGAGGAUAUAUAUGUAGGACGCACGUGAGUGCGUCCAAUACAUGAGGAUCACCCAUGUAGAAGGCGGUCUGAUCU [JL ENG2 1.97] (Eterna round: R96, puzzle: Exclusion NG 2)
Input ligand: FMN 200 uM
  apparent KD of MS2 coat protein: 18.5 nM
[1]
  apparent KD of MS2 coat protein: 9.9 nM
Input ligand: none
  apparent KD of MS2 coat protein: 14.2 nM

## CGAUAUUAUGUCAGGAUAUACAUUGCGAAAGCAAUGUAGAAGGGACAUGAGGAUCACCCAUGUUCCUACUAUCG [Omei A 1] (puzzle: Brourd's mod of Exclusion 4)
[2]
  apparent KD of MS2 coat protein: 11.9 nM

## CACCGUUACACAGGAUAUCUUACAUGAGGAUCACCCAUGUAAUAAAUGAGAAUUUCGAAUGUAUUAGAGAAGGGUGGAAUCGGC [Ostracism 67 - Jieux - Exclusion NG 2] (Eterna round: R96, puzzle: Exclusion NG 2)
[1]
  apparent KD of MS2 coat protein: 29.8 nM

## UCCUUACUGGUCAGGAUAUACAUUCGCUACUGGGUGUAGAAGGGACAUGAGGAUCACCCAUGUACGUUACAUCC [alecazam54e] (Eterna round: R97, puzzle: Brourd's mod of Exclusion 4)
Input ligand: FMN 200 uM
  apparent KD of MS2 coat protein: 19.3 nM
Input ligand: none
  apparent KD of MS2 coat protein: 23.8 nM

## AAAAAGUUGAGAGGAUAUGGUGCCGAAACGGUGCUAGAAGGCUUUACAAAAAAACAUGAGGAUCACCCAUGUUCAUGUAGAGAA [AK ExNG1-1.1] (Eterna round: R96, puzzle: Exclusion NG 1)
Input ligand: FMN 200 uM
  apparent KD of MS2 coat protein: 16.3 nM
[1]
  apparent KD of MS2 coat protein: 13.3 nM
Input ligand: none
  apparent KD of MS2 coat protein: 15.6 nM

## UUGCCGCGAGGAUAUGCAGACGGGUUCAAUACGUGUCUCGGACUUGAGGAUCACCCAAGUAGAAGGCUUUUUAU [LRO-Excl2-13-mod _r4_621 by salish99] (Eterna round: R97, puzzle: Exclusion 2)
Input ligand: FMN 200 uM
  apparent KD of MS2 coat protein: 16.2 nM
Input ligand: none
  apparent KD of MS2 coat protein: 14.8 nM

## CCGGAUAUGCAGGAUAUCGUAUCGGAGACGAUACGAGAAGGGUAUACAUGAGGAUCACCCAUGUGUCCUACCGG [Mat - Exclusion 6 - Eli Mod - D84] (puzzle: Exclusion 6)
[2]
  apparent KD of MS2 coat protein: 22.2 nM

## GGCGCCUGAGGAUAUCAGUCUGGAUCAGAAUAGAUCCUGACUGAGAAGGCACAUGAGGAUCACCCAUGUUCGCC [Eli 4x 4.28] (Eterna round: R97, puzzle: Exclusion 4)
Input ligand: FMN 200 uM
  apparent KD of MS2 coat protein: 16.4 nM
Input ligand: none
  apparent KD of MS2 coat protein: 14.8 nM

## CUGAGCAGACGGAGAUCCAACAUGAGGAUCACCCAUGUCUCACAAGCUUUUUGCUUGUCUUAUUCUCCUCUGUUCUC [Leveasodi] (puzzle: Sensor v3, turn-off variant 1)
[3]
  apparent KD of MS2 coat protein: 12.8 nM
[2]
  apparent KD of MS2 coat protein: 16.6 nM
[4]
  apparent KD of MS2 coat protein: 12.1 nM

## UUUUUGUCAGGAUAUGCGUAGUAGAACAAUAGUACUACUACGUAGAAGGGACAUGAGGAUCACCCAUGUUCCUC [Fiskers Ex 4 Super stable 44 mod 17] (puzzle: Exclusion 4)
[2]
  apparent KD of MS2 coat protein: 13.9 nM

## AAAUAAUAGAUAAAAUAACACAUGAGGAUCACCCAUGUGCGAUGUUGAGGGUGAUACAGGCUUUUUGCUCGUCUUAU (Eterna round: R96, puzzle: Sensor v3, turn-off variant 1)
Input ligand: FMN 200 uM
  apparent KD of MS2 coat protein: 155 nM
[1]
  apparent KD of MS2 coat protein: 415 nM
Input ligand: none
  apparent KD of MS2 coat protein: 133 nM

## GAUUUAGAGCAGGAUAUCAUAGAAAUGUAUGAAUGAGAAGGGCUCACAUGAGGAUCACCCAUGUGGUCCUAGAU [JL Dibiri mod 20] (Eterna round: R96, puzzle: Exclusion 6)
[1]
  apparent KD of MS2 coat protein: 21.6 nM

## AUAAAUCAUGUAGGAUAUGCGUGGAGAAGCUAUGCAGAAGGACAUGAGGAUCACCCAUGUGCUUCCGUCUGAGUACAGACGGAA [Mat - Exclusion NG 1 - Mod of JL - D37] (Eterna round: R96, puzzle: Exclusion NG 1)
Input ligand: FMN 200 uM
  apparent KD of MS2 coat protein: 129 nM
[1]
  apparent KD of MS2 coat protein: 99.4 nM
Input ligand: none
  apparent KD of MS2 coat protein: 86.5 nM

## AUUAAAAUAUAGGAUAUCGAAUUUAUUAUUUAACGAGAAGGAUGAACAUGAGGAUCACCCAUGUGGUAUCAUGG [Mat - Exclusion 6 - JL Mod - D35] (puzzle: Exclusion 6)
[3]
  apparent KD of MS2 coat protein: 177 nM
[2]
  apparent KD of MS2 coat protein: 156 nM
[4]
  apparent KD of MS2 coat protein: 189 nM

## ACGUAUAGAGGAUAUAGUGAAUAUUACAUGAGGAUCACCCAUGUUCUUCAAAGUAUAUUCCUAGAAGGCUAAUGAA [EX-5 Malc#11] (puzzle: Exclusion 5)
[3]
  apparent KD of MS2 coat protein: 537 nM
[2]
  apparent KD of MS2 coat protein: 148 nM
[4]
  apparent KD of MS2 coat protein: 171 nM

## GCAGCAUAGUUUACUAGCUGUUACAUGAGGAUCACCCAUGUUCAGGAUAUGGUCUGGAUUACAGGCCAGAAGGGAACAAGCUGC [Eli exng3 - 029] (Eterna round: R96, puzzle: Exclusion NG 3)
[1]
  apparent KD of MS2 coat protein: 7.99 nM

## CACCUGAAGAGAGGAUAUCAUACAUGAGGAUCACCCAUGUAAUAAAUGAGAAUUUCGAAUGUAAUUGAGAAGGCUCGAUAAGGC [Ostricism 92 - Jieux - Exclusion NG 2] (Eterna round: R96, puzzle: Exclusion NG 2)
Input ligand: FMN 200 uM
  apparent KD of MS2 coat protein: 109 nM
[1]
  apparent KD of MS2 coat protein: 54.9 nM
Input ligand: none
  apparent KD of MS2 coat protein: 59 nM

## UUGAUUAGAAAGGAUAUCGGAUACUUGAGAGUCCGAGAAGGUUUUACAUGAGGAUCACCCAUGUGGCAUCCUCG [Eternabot (L1) Solution 99] (Eterna round: R97, puzzle: Exclusion 6)
Input ligand: FMN 200 uM
  apparent KD of MS2 coat protein: 476 nM
Input ligand: none
  apparent KD of MS2 coat protein: 805 nM

## UUUUUGUGAGGAUAUGCGUAGUAGAACAAUAGUACUACUACGUAGAAGGCACAUGAGGAUCACCCAUGUUCCUC [Fiskers Ex 4 Super stable 44 mod 15] (puzzle: Exclusion 4)
[2]
  apparent KD of MS2 coat protein: 36.4 nM

## CCUCGACAUGAGGAUCACCCAUGUCAGGAUAUUGUGUUUCGGGUUUUUUACCGUUAGGCAAGAAGGGAUGUGUG [LRO-Excl1-15] (puzzle: Exclusion 1)
[2]
  apparent KD of MS2 coat protein: 25.1 nM

## AUUAAGCAGCAGGAUAUAAUUAUCUGAAGGUGGUUAGAAGGGCUGACAUGAGGAUCACCCAUGUGCUCUUCGUG [Diries] (puzzle: Exclusion 6)
[2]
  apparent KD of MS2 coat protein: 14.7 nM

## AAAAAACAAGGAUAUACAAAAAAAAAAUGUGUUAAAAAUCCACAUGAGGAUCACCCAUGUAGAAGGUGUAAAAA [JR_Exclusion2_Sub004] (puzzle: Exclusion 2)
[3]
  apparent KD of MS2 coat protein: 81 nM
[2]
  apparent KD of MS2 coat protein: 104 nM
[4]
  apparent KD of MS2 coat protein: 172 nM

## CAUACAGUAGUUAGGAUAUUGCAACACACACGGAACGAGAAGGGACAUGAGGAUCACCCAUGUAGACUGUAAAG [EX-4 Malc #6] (puzzle: Brourd's mod of Exclusion 4)
[3]
  apparent KD of MS2 coat protein: 20.7 nM
[2]
  apparent KD of MS2 coat protein: 27.2 nM
[4]
  apparent KD of MS2 coat protein: 24.5 nM

## UAUUAAUGCAAGGAUAUGCUUUUAAUUUUUUUUGCAGAAGGUGCAACAUGAGGAUCACCCAUGUUUCCGGGUAU [JR_E6_Sub032] (puzzle: Exclusion 6)
[2]
  apparent KD of MS2 coat protein: 25.7 nM

## GCAUGCUAUGUCAGGAUAUACCUCUGGAUACAUAGGUAGAAGGGACAUGAGGAUCACCCAUGUCCUAAACAUGC [Fiskers BMX 4 - 26] (puzzle: Brourd's mod of Exclusion 4)
[2]
  apparent KD of MS2 coat protein: 11.4 nM

## ACAAGCUGGCUCGUCUUAUACAUGAGGAUCACCCAUGUUCUCAAGGUCUUAUGUACUGACACGAAAGUGUUAGUAAU [AK-miRNA-r3-2] (Eterna round: R97, puzzle: Sensor, turn-off variant 1)
Input ligand: FMN 200 uM
  apparent KD of MS2 coat protein: 29.8 nM
Input ligand: none
  apparent KD of MS2 coat protein: 30.2 nM
